From IntAct's records for PubMed 16083711

B1: DNA mismatch repair protein Mlh1 (Homo sapiens), P40692 (parent)
chain: MSFVAGVIRRLDETVVNRIAAGEVIQRPANAIKEMIENCLDAKSTSIQVIVKEGGLKLIQIQDNGTGIRKEDLDIVCERFTTSKLQSFEDLASISTYGFRGEALASISHVAHVTITTKTADGKCAYRASYSDGKLKAPPKPCAGNQGTQITVEDLFYNIATRRKALKNPSEEYGKILEVVGRYSVHNAGISFSVKKQGETVADVRTLPNASTVDNIRSIFGNAVSRELIEIGCEDKTLAFKMNGYISNANYSVKKCIFLLFINHRLVESTSLRKAIETVYAAYLPKNTHPFLYLSLEISPQNVDVNVHPTKHEVHFLHEESILERVQQHIESKLLGSNSSRMYFTQTLLPGLAGPSGEMVKSTTSLTSSSTSGSSDKVYAHQMVRTDSREQKLDAFLQPLSKPLSSQPQAIVTEDKTDISSGRARQQDEEMLELPAPAEVAAKNQSLEGDTTKGTSEMSEKRGPTSSNPRKRHREDSDVEMVEDDSRKEMTAACTPRRRIINLTSVLSLQEEINEQGHEVLREMLHNHSFVGCVNPQWALAQHQTKLYLLNTTKLSEELFYQILIYDFANFGVLRLSEPAPLFDLAMLALDSPESGWTEEDGPKEGLAEYIVEFLKKKAEMLADYFSLEIDEEGNLIGLPLLIDNYVPPLEGLPIFILRLATEVNWDEEKECFESLSKECAMFYSIRKQYISEESTLSGQQSEVPGSIPNSWKWTVEHIVYKALRSHILPPKHFTEDGNILQLANLPDLYKVFERC
partner: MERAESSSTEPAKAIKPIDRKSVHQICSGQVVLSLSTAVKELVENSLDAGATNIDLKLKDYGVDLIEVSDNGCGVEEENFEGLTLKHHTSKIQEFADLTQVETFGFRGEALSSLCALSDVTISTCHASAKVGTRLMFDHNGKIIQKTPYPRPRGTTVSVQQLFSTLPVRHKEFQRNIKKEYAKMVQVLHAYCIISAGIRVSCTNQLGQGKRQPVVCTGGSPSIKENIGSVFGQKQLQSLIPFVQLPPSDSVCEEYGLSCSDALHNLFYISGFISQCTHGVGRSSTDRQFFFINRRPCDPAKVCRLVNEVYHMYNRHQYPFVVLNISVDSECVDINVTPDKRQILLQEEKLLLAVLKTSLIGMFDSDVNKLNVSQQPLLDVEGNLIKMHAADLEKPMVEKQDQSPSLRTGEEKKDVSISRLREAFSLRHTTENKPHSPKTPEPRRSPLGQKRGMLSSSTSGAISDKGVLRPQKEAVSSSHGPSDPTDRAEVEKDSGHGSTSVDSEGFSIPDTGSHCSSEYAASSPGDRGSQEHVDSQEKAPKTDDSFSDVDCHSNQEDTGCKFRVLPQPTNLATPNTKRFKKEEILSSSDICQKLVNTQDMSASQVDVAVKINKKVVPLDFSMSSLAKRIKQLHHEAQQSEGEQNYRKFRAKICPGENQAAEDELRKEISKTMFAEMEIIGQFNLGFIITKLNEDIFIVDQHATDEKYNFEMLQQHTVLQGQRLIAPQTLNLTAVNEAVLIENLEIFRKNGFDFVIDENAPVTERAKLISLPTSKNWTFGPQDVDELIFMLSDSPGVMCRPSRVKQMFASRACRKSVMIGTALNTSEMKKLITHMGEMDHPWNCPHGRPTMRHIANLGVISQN

Variants of: B1
Conditions: with pms2_human PMS2, P54278

effect of a mutation on the interaction | Variant
with no effect | P28L
with no effect | F80V
with no effect | G67R
with no effect | C77R
with no effect | S93G
with no effect | S247P
with no effect | K84E

More lines, now with the values behind:

Variant | effect of a mutation on the interaction
K443Q | with no effect
A29S | with no effect
I107R | with no effect
L155R | with no effect
V213M | with no effect
I219V | with no effect
H329P | with no effect
